Source: PMC9428257, “Developing high-affinity decoy receptors to treat multiple myeloma and diffuse large B cell lymphoma” (The Journal of Experimental Medicine, 2022)

Target: T1, human BAFF (B cell activating factor) (human, UniProt Q9Y275 134-285)
T1 construct: also called hBAFF
Assay: flow cytometry on cells; yeast-displayed sBCMA (wild type or mutant clone) incubated with increasing concentrations of soluble APRIL or BAFF; same reagents and protocols as the library sorts (PBS with 0.1% BSA, room temperature); KD from a one site-specific binding fit in GraphPad Prism
Conditions: one partner purified

T1 sequence (Q9Y275 134-285): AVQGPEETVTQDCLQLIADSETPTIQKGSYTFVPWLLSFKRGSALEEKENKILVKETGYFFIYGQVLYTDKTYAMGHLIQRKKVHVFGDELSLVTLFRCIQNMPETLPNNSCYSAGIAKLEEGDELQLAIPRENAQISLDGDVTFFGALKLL

B1: yeast-displayed mutant sBCMA V3 (S16G, H19Y, T36A, N53D) (domain or fragment, human, UniProt Q02223 1-54, looked up)
chain: MLQMAGQCSQNEYFDGLLYACIPCQLRCSSNTPPLACQRYCNASVTNSVKGTDA
notes: B cell maturation antigen (BCMA), human, extracellular domain, amino acids Met1-Ala54, with the four V3 mutations
B1 was tested, and the Kd was 9 pM.
